Measured values from PMC13095208, “Structural mechanisms of pump assembly and drug transport in the AcrAB–TolC efflux system” (eLife, 2026).

Target: the molecule itself
Assay: cryo-EM structure

B1: AcrA, periplasmic membrane fusion protein of Escherichia coli (natural protein)
chain: CDDKQAQQGGQQMPAVGVVTVKTEPLQITTELPGRTSAYRIAEVRPQVSGIILKRNFKEGSDIEAGVSLYQIDPATYQATYDSAKGDLAKAQAAANIAQLTVNRYQKLLGTQYISKQEYDQALADAQQANAAVTAAKAAVETARINLAYTKVTSPISGRIGKSNVTEGALVQNGQATALATVQQLDPIYVDVTQSSNDFLRLKQELANGTLKQENGKAKVSLITSDGIKFPQDGTLEFSDVTVDQTTGSITLRAIFPNPDHTLLPGMFVRARLEEGLNPNAILVPQQGVTRTPRGDATVLVVGADDKVETRPIVASQAIGDKWLVTEGLKAGDRVVISGLQKVRPGVQVKAQEVTADNNQQAASGAQPEQSKS
With B1 the “stoichiometry N” value was 6 protomers.
